Data: publication PMC9158119 (Frontiers in Immunology, 2022)

B1: Nb-008 (VHH)
VHH: EVQVVESGGGLVQAGGSLRLSCAASGSTSNLRVTGWYRQTPGKQRELVAAISNAGATVYPDSVAGRFTLSRDNAKNTVTLQINSLKPEDTAVYYCNARRFGRDYWGQGTQVTVSS
B2: Nb-004 (VHH)
VHH: QLQLVESGGGLVQAGGSLGLSCAASGITLGDYRMGWYRQAPGKQRELVARFTNAGAILYGDSVKGRFTISMNNAKNTVYLQINSLKPEDTAVYYCNARTTRGIDNWGQGTQVTVSS
B3: Nb-002 (VHH)
VHH: EVQLVESGGALVQPGGSLRLSCAASGFTLDAAAIGWFRQAPGKEREWVSCINRVGGGFYSDSAKGRFTISRDNDKNTVYLQMNSLKFEDTAVYYCAADSDSPRFGCSDSRARYEYWGQGTQVTASS
B4: Nb-006 (VHH)
VHH: QVQLVESGGGLVQAGESLRLSCAASGSTVSPYTMGWYRQAPGKQREWVATIRSDRSTNYADSVLGRFTISRDNAKNTVYLQMNSLKPEDTAVYQCYALQGGLLLGQGTQVTVSS
B5: Nb-005 (VHH)
VHH: EVQLVESGGGLVQAGGSLRLSCAASGSAFNDYAMGWYRQAPGKQRELVARFTNVGATLSSNSVKGRFTISRDNAKNTVFLQMNSLKPEDTAVYYCHAGHRILLGREYWGQGTQVTVSS
B6: Nb-003 (VHH)
VHH: EVQVVESGGGLVQAGGSLRVSCAASGSTSSRYIMAWYRQAPGKQRELVASITLVGATIYKDSVKGRFTISGDNAKKTVYLQMNNLKPEDTAVYYCNQIDPLIGGPGYWGQGIQVTVSS
B7: Nb-010 (VHH)
VHH: EVQVVESGGGLVQAGGSLRLSCTASGSTFTRYPMGWYRQAPGKQRELVAGFTVVGATIYADSVKGRFALSRDNAKKTIDLQLDSLKPDDTGVYYCSMYTYWGQGTQVTVSS
B8: Nb-001 (VHH)
VHH: EVQLVESGGGLVQAGGSLRLSCAASGSIFRLYTIDWYRQAPGKQRELVATISGTSPTNYADSVKGRATISRDNAKNTVYLQINSLKPEDTAVYYCHTVSGNTWGQGTQVTVSS
B9: Nb-007 (VHH)
VHH: QLQLVESGGGLVQAGGSMRLSCAASISFSSFPMGWHRQAPGKQRELVAKTGIGGTAYDDSVKGRFTISRDNTKNTVYLQMNSLKVEDTAVYYCWGWRMNDYWGQGTQVTVSS

What follows are binders tested against T1, SARS-CoV-2 original strain spike receptor-binding domain (S-RBD) (SARS-CoV-2, UniProt P0DTC2) (assay: not given). Conditions: not given.

Binder	binding result
B1	binds
B2	binds
B3	binds
B4	binds
B5	binds
B6	binds
B7	binds
B8	binds

These binders were tested against T1, SARS-CoV-2 original strain spike … (assay: SPR). Conditions: both partners purified.

Binder	Kd
B9	0.0674 nM
